B1: His-MpA (His-tagged version of MpA) (designed binder)
chain: GSDLGKKLLEAARAGQDDEVRELLKAGADVNAKDYFSHTPLHLAARNGHLKIVEVLLKAGADVNAKDFAGKTPLHLAAADGHLEIVEVLLKAGADVNAQDIFGKTPADIAADAGHEDIAEVLQKAAGSPTPTPTTPTPTPTTPTPTPTGSDLGKKLLEAARAGQDDEVRELLKAGADVNAKDVLGWTPLHLAAFEGHLEIVEVLLKAGADVNAKDKKGWTPLQLAARTGHLEIVEVLLKAGADVNAKDHIGATPLHLAAWQGHPEIVEVLLKAGADVNAQDKSGKTPADLAADAGHEDIAEVLQKAAGSPTPTPTTPTPTPTTPTPTPTGSDLGQKLLKAAQEGQDDEVRELLKAGADVNAKDLRGITPLHVAAWQGHLEIVEVLLKAGADVNAKDSKGETPLHLAAFRGHLEIVEVLLKAGADVNAQDQQGETPADLAALAGHVDIAEVLQKAAGSPTPTPTTPTPTPTTPTPTPTGSDLGQKLLKAAQEGQDDEVRELLKAGADVNAKDLRGITPLHVAAWQGHLEIVEVLLKAGADVNAKDSKGETPLHLAAFRGHLEIVEVLLKAGADVNAQDQQGETPADLAALAGHVDIAEVLQKAAGSPTPTPTTPTPTPTTPTPTPTGSDLGKKLLEAARAGQDDEVRELLKAGADVNAKDYFSHTPLHLAARNGHLKIVEVLLKAGADVNAKDFAGKTPLHLAAADGHLEIVEVLLKAGADVNAQDIFGKTPADIAADAGHEDIAEVLQKAA
B2: bispecific construct #45 (designed binder)
chain: MRGSHHHHHHGSDLGEKLLVAALYGQDDEVRILLAAGADVNAKDQWGLTPLHKAALQGHLEIVEVLLKAGADVNAKDERGHTPLHWAARFGHLEIVEVLLKAGADVNAQDQKGYTPADLAALWGHEDIAEVLQKAAGSPTPTPTTPTPTPTTPTPTPTGSDLGDKLLHAAYYGQDDEVRILLAAGADVNAKDTQGLTPLHLAAAIGHLEIVEVLLKAGADVNAKDAYGETPLHLVASRGHLEIVEVLLKAGADVNAQDYSGRTPADLAAEYGHEDIAEVLQKLN
notes: 56 is used; also called FAP-4-1BB bispecific construct #45
B3: bispecific construct #49 (designed binder)
chain: MRGSHHHHHHGSDLGEKLLVAALYGQDDEVRILLAAGADVNAKDQWGLTPLHKAALQGHLEIVEVLLKAGADVNAKDERGHTPLHWAARFGHLEIVEVLLKAGADVNAQDQKGYTPADLAALWGHEDIAEVLQKAAGSPTPTPTTPTPTPTTPTPTPTGSDLGKKLLVAANVGQDDEVRILLAAGADVNAKDYHGYTPLHHAATYGHLEIVEVLLKAGADVNAKDQTGLTPLHLAAAKGHLEIVEVLLKAGADVNAQDHHGYTPADLAAFVGHEDIAVVLQKLN
notes: 56 is used; also called FAP-4-1BB bispecific construct #49
B4: Multispecific binding protein B (MpB) (designed binder)
chain: MRGSHHHHHHGSDLGKKLLEAARAGQDDEVRELLKAGADVNAKDYFSHTPLHLAARNGHLKIVEVLLKAGADVNAKDFAGKTPLHLAAADGHLEIVEVLLKAGADVNAQDIFGKTPADIAADAGHEDIAEVLQKAAGSPTPTPTTPTPTPTTPTPTPTGSDLGEKLLVAALYGQDDEVRELLKAGADVNAKDQWGLTPLHKAALQGHLEIVEVLLKAGADVNAKDERGHTPLHWAARFGHLEIVEVLLKAGADVNAQDQKGYTPADLAALWGHEDIAEVLQKAAGSPTPTPTTPTPTPTTPTPTPTGSDLGQKLLKAAQEGQDDEVRELLKAGADVNAKDLRGITPLHVAAWQGHLEIVEVLLKAGADVNAKDSKGETPLHLAAFRGHLEIVEVLLKAGADVNAQDQQGETPADLAALAGHVDIAEVLQKAAGSPTPTPTTPTPTPTTPTPTPTGSDLGQKLLKAAQEGQDDEVRELLKAGADVNAKDLRGITPLHVAAWQGHLEIVEVLLKAGADVNAKDSKGETPLHLAAFRGHLEIVEVLLKAGADVNAQDQQGETPADLAALAGHVDIAEVLQKAAGSPTPTPTTPTPTPTTPTPTPTGSDLGKKLLEAARAGQDDEVRELLKAGADVNAKDYFSHTPLHLAARNGHLKIVEVLLKAGADVNAKDFAGKTPLHLAAADGHLEIVEVLLKAGADVNAQDIFGKTPADIAADAGHEDIAEVLQKAA
B5: bispecific construct #48 (designed binder)
chain: MRGSHHHHHHGSDLGEKLLVAALYGQDDEVRILLAAGADVNAKDQWGLTPLHKAALQGHLEIVEVLLKAGADVNAKDERGHTPLHWAARFGHLEIVEVLLKAGADVNAQDQKGYTPADLAALWGHEDIAEVLQKAAGSPTPTPTTPTPTPTTPTPTPTGSDLGKKLLEAARAGQDDEVRELLKAGADVNAKDQEHGSTPLHLAANYGHLEIVEVLLKAGADVNAKNWWGNTPLHLAAVYGHLEIVEVLLKAGADVNAKDNHGHTPLHLAAWYGHLEIVEVLLKAGADVNAQDKSGKTPADLAADAGHEDIAEVLQKAA
notes: 56 is used; also called FAP-4-1BB bispecific construct #48
B6: bispecific construct #46 (designed binder)
chain: MRGSHHHHHHGSDLGEKLLVAALYGQDDEVRILLAAGADVNAKDQWGLTPLHKAALQGHLEIVEVLLKAGADVNAKDERGHTPLHWAARFGHLEIVEVLLKAGADVNAQDQKGYTPADLAALWGHEDIAEVLQKAAGSPTPTPTTPTPTPTTPTPTPTGSDLGRKLLQAAQLGQDDEVRELLKAGADVNAKDSRGITPLHVAAWQGHLEIVEVLLKASADVNAKDHAGITPLHLAAFLGHLEIVEVLLKAGADVNAQDQEGRTPADLAALQGHEDIAKVLQKLN
notes: 56 is used; also called FAP-4-1BB bispecific construct #46
B7: bispecific construct #47 (designed binder)
chain: MRGSHHHHHHGSDLGEKLLVAALYGQDDEVRILLAAGADVNAKDQWGLTPLHKAALQGHLEIVEVLLKAGADVNAKDERGHTPLHWAARFGHLEIVEVLLKAGADVNAQDQKGYTPADLAALWGHEDIAEVLQKAAGSPTPTPTTPTPTPTTPTPTPTGSDLGKKLLEAARAGQDDEVRELLKAGADVNAKDTYGETPLHLAAWKGHLEIVEVLLKAGADVNAKDSIGITPLHVAAHHGHLEIVEVLLKAGADVNAKDKWGRTPLHLAALLGHLEIAEVLLKAGADVNAQDKSGKTPADLAADAGHDDIAEVLQKLN
notes: 56 is used; also called FAP-4-1BB bispecific construct #47

Experiments:
[1] = target: T1, human 4-1BB on primary human CD8 T cells (human, UniProt Q07011 24-255); test: cell-based or functional assay
[2] = target: T1, human 4-1BB on primary human CD8 T cells; test: cell-based or functional assay; remark: listed apart in the source
[3] = target: T2, human 4-1BB on transfected HT1080 NF-kB-luciferase reporter cells (human, UniProt Q07011 24-255); test: cell-based or functional assay
[4] = target: T3, biotinylated human 4-1BB (bio.h4-1BB) (human, UniProt Q07011 24-186, limits assumed, biotinylated (site not stated)); test: SPR (ProteOn XPR36); end of the group's range, tied to #45 by Table 15
T3 construct: also called CD137
Experimental: (§1) Assay set-up: Briefly, SPR measurements were performed using a ProteOn XPR36 instrument (BioRad) as described above. Biotinylated human and cynomolgus 4-1BB and human FAP were immobilized either directly or indirectly via NeutrAvidin (˜6000 RU pre-coated) on a GLC chip to reach 600 RU, 700 RU and 2000 RU, respectively. The interaction of FAP-4-1BB bispecific constructs to the coated targets was measured by injecting the bispecific constructs in a serial dilution of 50, 16.7, 5.6, 1.9 and 0.6 nM with an association of 120 s and dissociation of 1800 s using a constant flow rate of 30 μl/min. Targets were regenerated between the individual measurements using 10 mM glycine pH 2 and 124 mM H₃PO₄. The signals were double referenced against the running buffer (PBST) treated control lane.

[5] = target: T3, biotinylated human 4-1BB (bio.h4-1BB); test: SPR (ProteOn XPR36), biotinylated h4-1BB immobilised on GLC chip, construct as analyte
Experimental: as §1

[6] = target: T4, human fibroblast activation protein (hFAP) (human, UniProt Q12884 26-760, limits assumed); test: SPR (ProteOn XPR36), hFAP immobilised on GLC chip, construct as analyte
T4 construct: Recombinant soluble protein; also called human FAP; rhFAP
Experimental: as §1

[7] = target: T2, human 4-1BB on transfected HT1080 …; test: cell-based or functional assay; remark: listed apart in the source
[8] = target: T2, human 4-1BB on transfected HT1080 …; test: cell-based or functional assay; remark: listed apart in the source
[9] = target: T3, biotinylated human 4-1BB (bio.h4-1BB); test: SPR (ProteOn XPR36); end of the group's range, tied to #48 by Table 15
Experimental: as §1

[10] = target: T4, human fibroblast activation protein …; test: SPR (ProteOn XPR36); end of the group's range, tied to #47 by Table 15
Experimental: as §1

T1 sequence (Q07011 24-255 limits assumed): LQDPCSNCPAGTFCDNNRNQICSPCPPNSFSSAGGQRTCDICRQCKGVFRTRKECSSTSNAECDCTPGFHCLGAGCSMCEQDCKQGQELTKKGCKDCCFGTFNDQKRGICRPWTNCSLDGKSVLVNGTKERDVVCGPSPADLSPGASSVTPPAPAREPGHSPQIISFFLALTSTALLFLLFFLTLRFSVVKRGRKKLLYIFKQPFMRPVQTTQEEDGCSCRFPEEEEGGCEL
T2 sequence (Q07011 24-255 limits assumed): as above
T4 sequence (Q12884 26-760 limits assumed): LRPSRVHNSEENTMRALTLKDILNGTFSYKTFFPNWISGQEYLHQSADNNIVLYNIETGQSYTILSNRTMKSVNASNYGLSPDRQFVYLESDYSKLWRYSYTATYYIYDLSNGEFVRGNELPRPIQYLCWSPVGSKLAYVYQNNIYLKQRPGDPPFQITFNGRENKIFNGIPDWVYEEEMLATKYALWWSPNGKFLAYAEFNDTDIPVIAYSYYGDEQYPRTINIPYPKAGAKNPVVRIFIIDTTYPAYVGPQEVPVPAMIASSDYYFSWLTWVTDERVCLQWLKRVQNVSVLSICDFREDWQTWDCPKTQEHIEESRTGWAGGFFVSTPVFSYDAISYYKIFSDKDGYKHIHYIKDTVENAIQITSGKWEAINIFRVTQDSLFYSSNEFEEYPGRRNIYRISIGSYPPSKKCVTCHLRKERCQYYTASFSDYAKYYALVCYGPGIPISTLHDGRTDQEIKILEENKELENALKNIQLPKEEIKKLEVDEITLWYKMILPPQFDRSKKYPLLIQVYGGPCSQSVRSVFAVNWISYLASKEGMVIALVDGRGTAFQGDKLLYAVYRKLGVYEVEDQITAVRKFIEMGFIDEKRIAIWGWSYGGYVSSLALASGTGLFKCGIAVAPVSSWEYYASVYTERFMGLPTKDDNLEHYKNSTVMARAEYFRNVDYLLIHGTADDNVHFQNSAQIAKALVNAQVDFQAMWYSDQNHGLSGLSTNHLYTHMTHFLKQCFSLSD
T3 sequence (Q07011 24-186 limits assumed): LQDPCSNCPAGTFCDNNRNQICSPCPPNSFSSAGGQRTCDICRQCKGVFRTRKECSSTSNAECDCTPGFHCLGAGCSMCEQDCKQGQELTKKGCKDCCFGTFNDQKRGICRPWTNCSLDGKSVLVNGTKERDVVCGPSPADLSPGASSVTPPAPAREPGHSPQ

Row | Binder | EC50, IFNγ secretion of human CD8 T cells (plate-coated hFAP) [1] [nM] | EC50, IFNγ production by primary human CD8 T cells (anti-CD3 plus plate-coated hFAP) [2] [nM] | EC50, 4-1BB activation in HT1080 reporter cells in presence of FAP-expressing CHO cells (Population 2) [3] [nM] | Kd [4] [nM] | Kd [5] [nM] | Kd [6] [nM] | EC50, 4-1BB activation in HT1080 reporter cells in presence of FAP-beads [7] [nM] | EC50, 4-1BB activation in HT1080 reporter cells in presence of FAP-expressing CHO cells (Population 1) [8] [nM] | Kd [9] [nM] | Kd [10] [nM]
1 | B1 | 1 to 3 | 2.37 |  |  |  |  |  |  |  | 
2 | B2 |  |  | 0.39 | 0.4 to 1.5 | 1.47 | 0.33 | 5.15 | 0.67 |  | 
3 | B3 |  |  | 1.04 |  | 0.86 | 0.17 | 6.52 | 0.91 |  | 
4 | B4 | 1 to 2 | 1.54 |  |  |  |  |  |  |  | 
5 | B5 |  |  | 0.16 |  | 0.44 | 0.17 | 3.71 | 0.28 | 0.4 to 1.5 | 
6 | B6 |  |  | 0.37 |  | 1.15 | 0.27 | 5.85 | 0.73 |  | 
7 | B7 |  |  | 0.18 |  | 0.77 | 0.07 | 6.19 | 0.36 |  | 0.1 to 0.4

Reference: US20240190999A1 (Molecular Partners, published 2024)
